From patent US10562947B2, “Compositions and methods for preventing or treating diseases, conditions or processes characterized by aberrant fibroblast proliferation and extracellular matrix deposition” (MOERAE MATRIX, INC., priority 2011, dated 2020)

Key:
Experiment in all cases: Kinase Profiling Assay
Format in all cases: biochemical
Settings in all cases: 100 μM peptide
Itk(h) = biological target: T1, Itk(h) (Homo sapiens, UniProt Q08881)
T1 construct: purchased Millipore
T1 sequence (Q08881 1-620): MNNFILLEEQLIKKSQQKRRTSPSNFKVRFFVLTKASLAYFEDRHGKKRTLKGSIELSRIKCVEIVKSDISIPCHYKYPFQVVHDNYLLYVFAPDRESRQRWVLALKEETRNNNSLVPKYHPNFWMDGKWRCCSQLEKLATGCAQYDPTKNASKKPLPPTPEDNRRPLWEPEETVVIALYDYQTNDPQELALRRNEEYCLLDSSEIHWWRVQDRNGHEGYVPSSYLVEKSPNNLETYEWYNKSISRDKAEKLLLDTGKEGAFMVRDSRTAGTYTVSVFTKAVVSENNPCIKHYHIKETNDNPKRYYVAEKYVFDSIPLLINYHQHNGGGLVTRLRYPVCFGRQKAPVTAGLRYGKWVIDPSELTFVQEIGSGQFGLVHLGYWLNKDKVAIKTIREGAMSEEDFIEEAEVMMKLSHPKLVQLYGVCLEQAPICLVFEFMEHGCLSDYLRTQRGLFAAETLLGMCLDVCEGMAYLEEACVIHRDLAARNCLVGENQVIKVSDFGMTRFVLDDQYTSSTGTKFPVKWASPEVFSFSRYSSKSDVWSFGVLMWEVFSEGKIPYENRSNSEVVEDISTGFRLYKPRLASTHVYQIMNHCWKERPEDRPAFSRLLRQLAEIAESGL
Summary of the method: (§1)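 In duplicate, the activities of 266 available human kinases were determined with MK2 inhibitory peptides present, as a measure of peptide selectivity.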

PKBγ(h) = PKBγ(h) (Homo sapiens, UniProt Q9Y243)
Summary of the method: as §1

DAPK2(h) = DAPK2(h) (Homo sapiens, UniProt Q9UIK4)
Summary of the method: as §1

CDK5/p25(h) = CDK5/p25(h) (Homo sapiens, UniProt Q00535)
Summary of the method: as §1

Pyk2(h) = biological target: T2, Pyk2(h) (Homo sapiens, UniProt Q14289)
T2 construct: purchased Millipore (IC50 Profiler Express service)
Summary of the method: as §1

TAO2(h) = biological target: T3, TAO2(h) (Homo sapiens, UniProt Q9UL54)
T3 sequence (Q9UL54 1-1235): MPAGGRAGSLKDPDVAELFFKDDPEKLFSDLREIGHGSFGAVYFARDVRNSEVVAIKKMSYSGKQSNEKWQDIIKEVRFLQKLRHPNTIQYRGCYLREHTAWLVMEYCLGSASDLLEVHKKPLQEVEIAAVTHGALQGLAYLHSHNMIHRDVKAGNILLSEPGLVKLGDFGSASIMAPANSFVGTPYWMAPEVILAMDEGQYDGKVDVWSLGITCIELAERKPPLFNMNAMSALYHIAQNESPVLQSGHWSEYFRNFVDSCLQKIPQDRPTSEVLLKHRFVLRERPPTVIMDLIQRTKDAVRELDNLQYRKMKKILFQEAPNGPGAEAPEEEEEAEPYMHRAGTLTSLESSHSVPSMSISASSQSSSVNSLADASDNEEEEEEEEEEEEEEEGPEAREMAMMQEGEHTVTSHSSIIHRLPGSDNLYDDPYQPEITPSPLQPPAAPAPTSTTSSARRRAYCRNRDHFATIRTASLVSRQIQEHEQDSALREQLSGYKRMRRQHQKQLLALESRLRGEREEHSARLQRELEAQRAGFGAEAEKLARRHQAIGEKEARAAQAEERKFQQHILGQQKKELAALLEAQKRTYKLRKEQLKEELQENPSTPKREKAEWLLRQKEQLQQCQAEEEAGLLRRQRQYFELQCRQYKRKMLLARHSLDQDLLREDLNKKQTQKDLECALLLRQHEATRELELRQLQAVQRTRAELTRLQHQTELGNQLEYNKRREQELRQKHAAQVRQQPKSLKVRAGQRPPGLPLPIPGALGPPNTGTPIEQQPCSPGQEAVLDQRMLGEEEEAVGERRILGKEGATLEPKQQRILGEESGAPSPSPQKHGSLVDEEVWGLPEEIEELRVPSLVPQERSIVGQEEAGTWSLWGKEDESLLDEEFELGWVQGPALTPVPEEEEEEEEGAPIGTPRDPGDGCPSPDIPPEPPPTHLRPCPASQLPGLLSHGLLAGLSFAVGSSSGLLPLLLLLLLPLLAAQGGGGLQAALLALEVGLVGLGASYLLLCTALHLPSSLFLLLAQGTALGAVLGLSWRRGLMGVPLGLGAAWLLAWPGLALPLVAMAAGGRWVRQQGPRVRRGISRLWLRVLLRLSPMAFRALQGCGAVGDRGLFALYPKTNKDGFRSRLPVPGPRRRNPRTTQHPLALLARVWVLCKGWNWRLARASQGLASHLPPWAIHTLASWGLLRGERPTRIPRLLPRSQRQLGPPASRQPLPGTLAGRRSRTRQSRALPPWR
Summary of the method: as §1

Haspin(h) = biological target: T4, Haspin(h) (Homo sapiens, UniProt Q8TF76)
T4 construct: purchased Millipore
T4 sequence (Q8TF76 1-798): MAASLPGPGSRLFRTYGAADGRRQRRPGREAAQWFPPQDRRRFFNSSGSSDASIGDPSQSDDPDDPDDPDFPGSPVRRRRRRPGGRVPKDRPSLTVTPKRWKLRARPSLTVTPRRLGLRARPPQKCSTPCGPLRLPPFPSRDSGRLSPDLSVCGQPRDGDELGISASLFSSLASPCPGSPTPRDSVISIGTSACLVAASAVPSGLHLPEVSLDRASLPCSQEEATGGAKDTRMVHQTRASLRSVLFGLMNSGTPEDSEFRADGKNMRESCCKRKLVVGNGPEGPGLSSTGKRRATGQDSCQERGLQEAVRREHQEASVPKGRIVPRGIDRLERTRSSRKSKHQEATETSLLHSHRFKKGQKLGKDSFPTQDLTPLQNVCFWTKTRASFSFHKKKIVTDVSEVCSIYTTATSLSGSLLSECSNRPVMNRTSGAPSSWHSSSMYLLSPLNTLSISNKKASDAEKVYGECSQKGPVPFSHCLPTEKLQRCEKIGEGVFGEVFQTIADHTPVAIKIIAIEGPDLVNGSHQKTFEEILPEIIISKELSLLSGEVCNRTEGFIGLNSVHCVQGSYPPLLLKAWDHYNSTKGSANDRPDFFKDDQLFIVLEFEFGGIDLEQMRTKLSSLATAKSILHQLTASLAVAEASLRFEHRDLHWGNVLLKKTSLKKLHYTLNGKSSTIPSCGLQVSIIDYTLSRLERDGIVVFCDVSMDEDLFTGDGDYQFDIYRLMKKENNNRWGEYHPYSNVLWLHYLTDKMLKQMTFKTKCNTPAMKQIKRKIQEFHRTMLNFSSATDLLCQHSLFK
Summary of the method: as §1

Sequence of CDK5/p25(h) (Q00535 whole entry): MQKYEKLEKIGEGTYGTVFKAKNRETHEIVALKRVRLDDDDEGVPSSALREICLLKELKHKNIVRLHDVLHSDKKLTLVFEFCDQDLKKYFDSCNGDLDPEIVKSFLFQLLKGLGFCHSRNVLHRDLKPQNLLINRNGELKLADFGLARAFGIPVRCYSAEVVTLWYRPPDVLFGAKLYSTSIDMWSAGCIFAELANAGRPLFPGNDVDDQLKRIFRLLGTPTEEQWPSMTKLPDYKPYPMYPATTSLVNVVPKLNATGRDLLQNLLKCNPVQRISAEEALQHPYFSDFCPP
Sequence of CDK5/p25(h) (Q15078 99-307 partner limits assumed): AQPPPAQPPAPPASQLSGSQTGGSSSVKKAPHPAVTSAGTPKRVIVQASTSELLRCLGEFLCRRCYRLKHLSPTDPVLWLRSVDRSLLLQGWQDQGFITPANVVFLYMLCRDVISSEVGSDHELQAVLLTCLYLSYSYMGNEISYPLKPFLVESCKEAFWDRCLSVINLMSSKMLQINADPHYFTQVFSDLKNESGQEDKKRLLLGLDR
Sequence of DAPK2(h) (Q9UIK4 whole entry): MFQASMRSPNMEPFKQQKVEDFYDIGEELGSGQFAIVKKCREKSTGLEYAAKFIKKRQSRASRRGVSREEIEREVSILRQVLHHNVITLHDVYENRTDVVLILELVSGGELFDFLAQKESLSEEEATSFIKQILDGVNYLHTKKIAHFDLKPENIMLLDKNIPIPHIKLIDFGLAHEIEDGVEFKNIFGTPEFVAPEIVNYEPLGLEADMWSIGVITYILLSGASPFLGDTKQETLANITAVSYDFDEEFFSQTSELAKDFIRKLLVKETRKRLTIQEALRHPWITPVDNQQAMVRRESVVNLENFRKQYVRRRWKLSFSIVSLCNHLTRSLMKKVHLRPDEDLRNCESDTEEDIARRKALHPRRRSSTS
T2 sequence (Q14289 whole entry): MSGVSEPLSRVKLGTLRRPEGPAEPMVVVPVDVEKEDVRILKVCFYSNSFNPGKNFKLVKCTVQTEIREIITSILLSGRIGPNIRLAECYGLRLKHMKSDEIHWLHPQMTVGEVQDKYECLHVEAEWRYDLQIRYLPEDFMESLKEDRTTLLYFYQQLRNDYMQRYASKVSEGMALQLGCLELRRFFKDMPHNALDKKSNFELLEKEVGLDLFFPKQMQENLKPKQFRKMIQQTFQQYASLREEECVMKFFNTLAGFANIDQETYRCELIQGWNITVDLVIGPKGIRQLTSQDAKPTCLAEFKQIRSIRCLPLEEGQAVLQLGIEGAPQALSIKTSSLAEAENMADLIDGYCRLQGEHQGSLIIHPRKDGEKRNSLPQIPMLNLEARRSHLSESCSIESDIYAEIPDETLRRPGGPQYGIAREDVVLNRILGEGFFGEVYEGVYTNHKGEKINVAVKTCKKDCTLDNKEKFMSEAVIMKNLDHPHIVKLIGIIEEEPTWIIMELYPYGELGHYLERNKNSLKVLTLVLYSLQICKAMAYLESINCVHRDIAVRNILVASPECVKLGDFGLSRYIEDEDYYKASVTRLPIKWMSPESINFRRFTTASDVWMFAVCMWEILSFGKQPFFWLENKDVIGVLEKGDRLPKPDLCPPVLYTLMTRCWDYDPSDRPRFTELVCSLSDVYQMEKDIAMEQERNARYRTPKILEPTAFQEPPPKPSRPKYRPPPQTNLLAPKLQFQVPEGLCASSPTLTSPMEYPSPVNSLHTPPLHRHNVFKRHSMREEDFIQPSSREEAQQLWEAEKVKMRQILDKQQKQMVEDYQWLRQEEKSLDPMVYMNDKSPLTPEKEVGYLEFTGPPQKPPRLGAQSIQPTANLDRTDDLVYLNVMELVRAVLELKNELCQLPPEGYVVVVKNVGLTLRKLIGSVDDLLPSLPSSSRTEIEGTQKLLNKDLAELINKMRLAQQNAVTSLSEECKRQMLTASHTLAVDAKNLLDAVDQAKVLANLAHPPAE
Sequence of PKBγ(h) (Q9Y243 whole entry): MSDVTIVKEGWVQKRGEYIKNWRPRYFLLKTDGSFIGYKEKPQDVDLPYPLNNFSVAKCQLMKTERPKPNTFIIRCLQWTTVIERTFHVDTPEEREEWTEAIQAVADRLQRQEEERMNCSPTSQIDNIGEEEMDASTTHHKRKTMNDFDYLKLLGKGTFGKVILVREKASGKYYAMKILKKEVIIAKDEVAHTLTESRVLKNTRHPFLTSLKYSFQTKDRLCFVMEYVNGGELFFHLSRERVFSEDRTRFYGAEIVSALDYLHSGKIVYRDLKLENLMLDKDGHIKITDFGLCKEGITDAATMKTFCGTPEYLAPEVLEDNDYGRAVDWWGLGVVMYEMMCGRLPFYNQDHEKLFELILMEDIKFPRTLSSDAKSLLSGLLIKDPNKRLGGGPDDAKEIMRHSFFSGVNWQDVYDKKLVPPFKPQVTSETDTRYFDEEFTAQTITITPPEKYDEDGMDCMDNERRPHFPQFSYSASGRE

Sequence | Itk(h) % activity (Itk(h)) [%] | PKBγ(h) % activity (PKBγ(h)) [%] | DAPK2(h) % activity (DAPK2(h)) [%] | CDK5/p25(h) % activity (CDK5/p25(h)) [%] | Pyk2(h) % activity (Pyk2(h)) [%] | TAO2(h) % activity (TAO2(h)) [%] | Haspin(h) % activity (Haspin(h)) [%]
FAKLAARLYRKALARQLGVAA [MMI-0300] | 77 | 20 | 32 | 89 | 47 | 70 | 48
KAFAKLAARLYRKALARQLGVAA [MMI-0400] | 63 | 41 | 16 | 92 | 34 | 74 | 36
YARAAARQARAKALNRQLGVA (Mammalian) [MMI-0200] | 98 | – | 92 | 97 | 127 | 93 | 71
HRRIKAWLKKIKALARQLGVAA (Mammalian) [MMI-0500] | 7 | 20 | 3 | 66 | 46 | 15 | 25
